This is an account of results in article PMC4005879 (Bioorganic & medicinal chemistry letters, 2014).

Like-named read-outs stand apart in the source and are kept apart here.

Test [1] has as its target HIV capsid protein p24 CTD (Human immunodeficiency virus 1) (UniProt O93182). As to conditions: cited from earlier work.
The target of test [2] is capsid assembly inhibitor (CAI) peptide. As to the kind of experiment: ITC. For orientation: ITC needs no label: the signal is the heat of the interaction.
In test [3] the test system is HIV-1. The note with it: read-out: MT-2 cells IC50, multi-cycle infection assay, ref [8]; cited from earlier work.
In test [4] the test system is HIV-1. The note with it: read-out: TZM-b1 cells IC50; single-cycle assay, TZM-bl cells; ref [8]; cited from earlier work.

In general, Kd refers to the constant that tells how readily two partners part at equilibrium. Consider CAI, for which the dissociation constant (Kd) in test [1] was 15 µM.

In general, stoichiometry N refers to a count of units in the complex or per binding partner. In test [2], “C-terminal domain (CTD) of the HIV capsid protein p24, M184A/W185A (domain or fragment)” yielded a Kd of 8.3 µM, a dH of -9.45 kcal/mol and a stoichiometry N of 0.98.

The IC50 is the concentration that gives 50% inhibition. For the substance “ISFR8ELLDYYS5ESGS (sidechain bridge or staple) [NYAD-36]”, the 50% inhibitory concentration (IC50) in the test on HIV-1 [3] was 1.5 ± 0.17 µM; with HIV-1 [4], 2 ± 0.4 µM.
